Drawing on patent US20230399406A1, this text covers STAT1 phosphorylation (phospho STAT1 MFI, FACS) in MDA-MB-321 cells for one substance.

The assay concerns the target human PD-L1 (programmed death-ligand 1) (human) (UniProt Q9NZQ7). Briefly: cell-based or functional assay.
Chain of UniProt Q9NZQ7 (Q9NZQ7 19-290): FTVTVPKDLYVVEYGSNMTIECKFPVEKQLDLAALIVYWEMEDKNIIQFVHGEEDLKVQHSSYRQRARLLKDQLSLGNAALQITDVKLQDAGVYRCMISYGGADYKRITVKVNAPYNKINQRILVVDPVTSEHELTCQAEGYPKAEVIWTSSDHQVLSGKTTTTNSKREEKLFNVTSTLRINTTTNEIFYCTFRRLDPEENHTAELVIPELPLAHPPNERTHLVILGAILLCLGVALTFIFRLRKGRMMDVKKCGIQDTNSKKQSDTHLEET

Untargeted (BcII10 VHH) chimera: the STAT1 phosphorylation (phospho STAT1 MFI, FACS) in MDA-MB-321 cells is 100 ng/mL.
